This note sets out measurements from patent publication US20250034594A1, “RNA-GUIDED GENOME RECOMBINEERING AT KILOBASE SCALE” (THE BOARD OF TRUSTEES OF THE LELAND STANFORD JUNIOR …, priority 2021, published 2025).

Holding throughout (format): cell-based
Experiment [1] concerns gene editing with Cas9. In words: Screen of 322 new SSAP proteins, gene editing activity with Cas9 (Table 5). Further details: Cas9 with SSAP activity: scale not given here. Summed up:
(§1)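 Editing screen of 322 newly identified, synthesized SSAPs, each co-used with Cas9 and with dCas9.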

Experiment [2] concerns gene editing with dCas9. In words: Screen of 322 new SSAP proteins, gene editing activity with dCas9 (Table 5). Also noted: dCas9 with SSAP activity: scale not given here. An outline of the steps: as §1
Experiment [3] relates to gene editing with Cas9 and dCas9. The experiment is described as follows: Screen of 322 new SSAP proteins, activity across all experiments (Cas9 and dCas9, Table 5). Further details: scale not given here. An outline of the steps: as §1

B1: SSAP_93: SEQ ID NO: 262; Morganella morganii (protein, listed as Morganella morganii)
chain: SNPPIAQADLQKAQGTAVKEKTKDQQLIQFINQPGMKAQLAAALPRHITPDRMIRIVTTEIRKTPSLATCDMQSFIGAVVQCSQLGLEPGNALGHAYLLPFGNGKAASGQSNVQLIIGYRGMIDLARRSGQIISISARTVREGDSFHFEYGLNEDLTHVPGENDSGPITHVYAVARLKEGGVQFEVMSFSQIEKVRDSSKAGKNGPWVSHWEEMAKKTVIRRLFKYLPVSIEMQRAVILDEKAEANVDQEHASIFEGEYETVSPE
In the case of B1, in experiment [1], the “Cas9 with SSAP activity” value was found to be 0.714 and the “Cas9 with SSAP activity (normalized)” value turned out to be 1.299. Moreover, in experiment [2], the “dCas9 with SSAP activity” value is listed as −2.015 and the “dCas9 with SSAP activity (normalized)” value is on record as −0.557. The “Activity across all experiments” value in experiment [3] is reported as −0.650.

B2: SSAP_203: SEQ ID NO: 372; Oenococcus oeni (protein, listed as Oenococcus oeni)
chain: SNELKTILNAPTTKEKFDEVLGRNAQGYINSVLNAVGNSKLLQNASPNSILSGAMKAATLNLSIDPNLGYAYFVPYGHEAQLQIGYQGLIQLAQRSGQIKILNAAPIYDEQFKSLDPVTGKLTLNKKIVPDTNKKPTGYVAYLKTVTGFEHTEFMSYADIEKFAKRFSKSFNSSTSPWKTDFNAMAKKTLIKQVLKYAPMSIDLQTAVSADNDDIEPKDITPDEDKETVDKISNLISDNKQDDTLSQLEEVANANN
As for B2, in experiment [1], the “Cas9 with SSAP activity” value is reported as −2.670 and the “Cas9 with SSAP activity (normalized)” value is reported as −0.476. Moreover, in experiment [2], the “dCas9 with SSAP activity” value is reported as −2.129 and the “dCas9 with SSAP activity (normalized)” value was −0.311. In experiment [3], the “Activity across all experiments” value is on record as −2.400.

B3: SSAP_276: SEQ ID NO: 445; Oceanobacillus sp. Castelsardo (protein, listed as Oceanobacillus sp.)
chain: ATNSTLKNQISNKKQGNNQVGKTQGTTMKQLLASPAVMNRFEEVLGKRANQFTASILGLYNSEKMLQKAEPMSVISSAMIAATLDLPVDKNLGYAWIVPYGGKAQFQMGYKGYIQLALRTGQYRNINVIEVYEGELKKWDRLTEEIELDFESRTSDKVIGYTGYFELINGFRKTVYWSKEDVEKHKKRFSKSDFGWKNDWDAMARKTVIRNMLNKWGILSIDMQKGMVEDSKDPVEVNEEFSSDVIDADYEVVGENEQQDFTVEENA
Turning to B3, in experiment [1], the “Cas9 with SSAP activity” value was −2.551 and the “Cas9 with SSAP activity (normalized)” value was −0.452. Also, in experiment [2], the “dCas9 with SSAP activity” value was −2.052 and the “dCas9 with SSAP activity (normalized)” value is given as −0.337. Also, the “Activity across all experiments” value in experiment [3] is reported as −2.301.

B4: SSAP_287: SEQ ID NO: 456; Leifsonia xyli subsp. xyli str. CTCB07 (protein, listed as Leifsonia xyli)
chain: AVKKNPTIEDYLIKYEPEFQRALGASMDAAKFAQDALTAIKQNPKIGHSDPRSLFGALFLAAQLKLPVGGPLAQFHLTTRTVKGNLTVVPIVGYGGYVQLIMNTGLYSRVSAFLIHAGDYFVTGANSERGEFYDFRRADSDRGEVKGVIAYAKVKGHNESSWVYIDAETMRAKHRPKYWESTPWADDAGEMFKKTGIRVLQKYLPKSVESLNVALAASADQAIVRKVDGVPDLDIQHDRDTETVAVPEQPVSVPQPGDET
B4: in experiment [1], the “Cas9 with SSAP activity” value was 0.085 and the “Cas9 with SSAP activity (normalized)” value stood at 0.091. Besides, in experiment [2], the “dCas9 with SSAP activity” value is given as −2.044 and the “dCas9 with SSAP activity (normalized)” value is −1.493. Further, the “Activity across all experiments” value in experiment [3] is listed as −0.980.

B5: SSAP_224: SEQ ID NO: 393; Clostridium tyrobutyricum (protein, listed as Clostridium tyrobutyricum)
chain: SDKKMVVLGESHKALSKLLETKQEALPKDFNKARFLQNCMTVLQDTKDIDKCQPISVARTMLKGAFLGLDFFNRECYAIPYGGNLQFQTDYKGEIKLAKKYSFNSIKDIYAKIVREGDDFQESIEDGRQTINFKPLPFNNGEIIGAFAVCLFQDGSMLYETMTKQEIEDIRNNFSKAKNSPAWVKTPGEMYKKTVLRRLCKLIELDFDSVETKKTYDETSEFEFGSANHEVSNFDKDDSNIIEADAEIQDDVQEGDGEDE
Take B5: in experiment [1], the “Cas9 with SSAP activity” value was 3.010 and the “Cas9 with SSAP activity (normalized)” value is 2.232. In experiment [2], the “dCas9 with SSAP activity” value was −2.113 and the “dCas9 with SSAP activity (normalized)” value is on record as −0.351. Also, the “Activity across all experiments” value in experiment [3] was found to be 0.449.

B6: SSAP_155: SEQ ID NO: 324; Staphylococcus nepalensis (protein, listed as Staphylococcus nepalensis)
chain: ATQNQFKNQLTQKKENNNQPQQKAVGPKQEISNLLDRMAPQIQKALPQHMSAERMARIAMTAVSSTPKLLECDPKSLIGALMQSSQIGLEPNTNLGQAYLIPYGKEVQLQVSYLGMIELANRSKQYKAIYAHEVYPEDYFEYQYGLQKDLIHKPADNPQSEPIGYYAVYHLLNGGYDFVYWSKAKIDDHARQFSKAVQKGWQSPWKTNFNAMAKKTVLKDLLKFAPKSIEMNNAVSSDSKAQQIDDDGNIIDVTDYSQVNDEPEQLQEGQ
On to B6, for which, in experiment [1], the “Cas9 with SSAP activity” value is given as −2.139 and the “Cas9 with SSAP activity (normalized)” value is listed as −0.908. In experiment [2], the “dCas9 with SSAP activity” value is listed as −2.105 and the “dCas9 with SSAP activity (normalized)” value is reported as −0.826. Also, the “Activity across all experiments” value in experiment [3] is given as −2.122.

B7: SSAP_162: SEQ ID NO: 331; Helcococcus sueciensis (protein, listed as Helcococcus sueciensis)
chain: AQAKELLENKTNNTVKKSEKQTMENLLTLMADEIKKALPENVKSERFRRIALTAFNGNKDLQQCEPTSFLAAMMQSAQLGLEPNTPLGQAYLIPYNNSKKNIKEVQFQVGYKGMLDLAHRTNQYKNIQANIVYEKDEFDIEYGLNPKLKHIPNMKEDRGQAIGYYAVYNLINGGQGFEYMTRAEVEKHAQKFSKTYRNGPWQTDFDEMAKKTVLKKVLKYAPMSTELQEATAIDERVVNEENIKSKNEDKFVDVDWSYVDDVEEDVIE
For the molecule B7, in experiment [1], the “Cas9 with SSAP activity” value came out at 0.273 and the “Cas9 with SSAP activity (normalized)” value is recorded as 0.278. In experiment [2], the “dCas9 with SSAP activity” value is reported as −2.073 and the “dCas9 with SSAP activity (normalized)” value is on record as −1.380. Also, the “Activity across all experiments” value in experiment [3] is −0.900.

B8: SSAP_295: SEQ ID NO: 464; Pseudoalteromonas (multispecies) (protein, listed as Pseudoalteromonas sp.)
chain: SLSLQEYQNLLYGKLTACKGQFDACLSENGYKLDFNTELNYVYQIVMSGLNVEYSFPYTPVESVITSFLKAAKIGLSLCPTEQLCFLKTEYSESSGQYVTQLGLGYKGILKLAYRSGKVKQINANVFYEKDNFQYNGVNSKVTHTTTVLSKAMRGQLAGGYCQTELIDGSFKTTVMPPEEILAIEEQGKAMGNEAWLSVHVDQMREKTLIKRHWKTLCPCIYRDSVMNDPMLFDDQDCQHSSNQQAYEEQFESAYSREAY
Take B8: in experiment [1], the “Cas9 with SSAP activity” value is reported as −2.337 and the “Cas9 with SSAP activity (normalized)” value is recorded as −0.343. For the same molecule, in experiment [2], the “dCas9 with SSAP activity” value was −2.038 and the “dCas9 with SSAP activity (normalized)” value is reported as −0.267. In experiment [3], the “Activity across all experiments” value is reported as −2.188.

B9: SSAP_142: SEQ ID NO: 311; Roseburia intestinalis (protein, listed as Roseburia intestinalis)
chain: GDIRSELAKKAEQTQGNTKLTKSMSIADLIKAMEPEIQKALPSVITPERFTRMALSALNTTPKLQECTPMSFLAALMNAAQLGLEPNTPLGQAYLIPYKNKNVLECQFQLGYRGMIDLAYRNGHMQSIEAQAVYENDVFSYALGLHPELVHKPTLEEKGALKAFYAIFRLDNGGFRFEVMGKTYIDWYANRYSKAFTSEFSPWKSNYEGMAKKTVIKQLLKYAPLKTEFQRALSTDETIKNSLNVDMGEVLSEDIIDMPCEEVA
For B9, in experiment [1], the “Cas9 with SSAP activity” value is listed as 0.197 and the “Cas9 with SSAP activity (normalized)” value is recorded as 0.073. In addition, in experiment [2], the “dCas9 with SSAP activity” value is given as −2.145 and the “dCas9 with SSAP activity (normalized)” value is listed as −1.216. For the same molecule, in experiment [3], the “Activity across all experiments” value is −0.974.

B10: SSAP_263: SEQ ID NO: 432; Gulosibacter molinativorax (protein)
chain: TDLTEKIATKAVAVKKDPKIADLMKSYEPQFARSLGKSMDAAKFGQDALTAIKQTPKLLEADQRSLFGAIFLAAQLKLPVGGPLAQFHLTPRKVAGEMTVVPIIGYNGYIQLAMNTGLYSKVGAFTVHANDHFRTGANSERGEFYDYERATGDRGELTGVIGYAKVKGFDESSFVYLDAATVRERHRPKFWDKTPWASDEGEMFRKTAIRVLQKYLPKSIEAAPLALAAQADQATVRRVDGVDDLQIDHEDIAIAEVIEDD
modifications: Gulosibacter molinativorax
On to B10, for which, in experiment [1], the “Cas9 with SSAP activity” value is −1.201 and the “Cas9 with SSAP activity (normalized)” value is −0.666. In experiment [2], the “dCas9 with SSAP activity” value is reported as −2.069 and the “dCas9 with SSAP activity (normalized)” value is on record as −0.685. The “Activity across all experiments” value in experiment [3] is −1.635.

B11: SSAP_165: SEQ ID NO: 334; Robinsoniella sp. KNHs210 (protein, listed as Robinsoniella sp.)
chain: TTRTGNIKEELAKKAEGTNGDTRLTKAMSIADLIKAMEPEIKKALPEVITPERFTRMALSALNTTPKLRECTQISFLAAMMNAAQLGLEPNTPLGQAYLIPFNNKGTMECQFQIGYKGMIDLSYRNPQMQMISAQAVYENDEFKYELGLNPTLIHRPVLRGRGEVILFYGLFKLTNGGYGFEVMSKEEMDAYAKAYSKAIDSSFSPWKSNYNGMAKKTVIKQVLKYAPIKADFRKALSSDETIKNEISENMSEIHGEIIFDTDYMEESA
Regarding B11, in experiment [1], the “Cas9 with SSAP activity” value is −0.918 and the “Cas9 with SSAP activity (normalized)” value is reported as −0.925. In addition, in experiment [2], the “dCas9 with SSAP activity” value is −2.157 and the “dCas9 with SSAP activity (normalized)” value is listed as −0.568. In experiment [3], the “Activity across all experiments” value is −1.538.

B12: SSAP_32: SEQ ID NO: 201 (protein)
chain: EFETDEEEKEMSNNQLSTQQAKRDIAIDTSVWTFQDVKRYFDPQNLLTEKQVGQALSLIKGRNLNPLANEVYIVAYKKKTGGTEFSLIVSKEAFLKRAAQNPNYEGFEAGVVTVDTDGVMHERKGALMLPGDTLVGGWARVYRKNFKVPVEIFVSREEYDKKQSTWNAMPATMIRKTALVNALREAFPEDLGNMYTEDDGGETFDRIKQAEPVESREDVMARKMAQIEQMKQEQAQRQIDTSYPTDDVIDPDDEPAQGELLEDLEY
As to B12, in experiment [1], the “Cas9 with SSAP activity” value was −0.435 and the “Cas9 with SSAP activity (normalized)” value was −1.203. For the same molecule, in experiment [2], the “dCas9 with SSAP activity” value is −2.180 and the “dCas9 with SSAP activity (normalized)” value is given as −0.281. Further, in experiment [3], the “Activity across all experiments” value was −1.308.
